Publication PMC5642273

Substrate: CC(C)=CCC/C(C)=C/COP(=O)(O)OP(=O)(O)O
Assay: purified protein
Settings: Mn2+

B1: (+)-limonene synthase [(+)-LS] (Citrus sinensis) (protein)
chain: RRSANYQPSIWDHDFLQSLNSNYTDETYKRRAEELKGKVKTAIKDVTEPLDQLELIDNLQRLGLAYHFEPEIRNILRNIHNHNKDYNWRKENLYATSLEFRLLRQHGYPVSQEVFSGFKDDKVGFICDDFKGILSLHEASYYSLEGESIMEEAWQFTSKHLKEMMITSNSKEEDVFVAEQAKRALELPLHWKAPMLEARWFIHVYEKREDKNHLLLELAKLEFNTLQAIYQEELKDISGWWKDTGLGEKLSFARNRLVASFLWSMGIAFEPQFAYCRRVLTISIALITVIDDIYDVYGTLDELEIFTDAVARWDINYALKHLPGYMKMCFLALYNFVNEFAYYVLKQQDFDMLLSIKHAWLGLIQAYLVEAKWYHSKYTPKLEEYLENGLVSITGPLIITISYLSGTNPIIKKELEFLESNPDIVHWSSKIFRLQDDLGTSSDEIQRGDVPKSIQCYMHETGASEEVAREHIKDMMRQMWKKVNAYTADKDSPLTRTTAEFLLNLVRMSHFMYLHGDGHGVQNQETIDVGFTLLFQPIPLEDKDMAFTASPGTKG
Km: 13.1 ± 0.6 µM
